In patent publication US20200297818A1 (ZEALAND PHARMA A S, published 2020):
Where a chain is given by its changes, count along the chain named.

T1: human GLP-2 receptor (hGLP2-R) (human, UniProt O95838 1-553)
T1 sequence (looked up): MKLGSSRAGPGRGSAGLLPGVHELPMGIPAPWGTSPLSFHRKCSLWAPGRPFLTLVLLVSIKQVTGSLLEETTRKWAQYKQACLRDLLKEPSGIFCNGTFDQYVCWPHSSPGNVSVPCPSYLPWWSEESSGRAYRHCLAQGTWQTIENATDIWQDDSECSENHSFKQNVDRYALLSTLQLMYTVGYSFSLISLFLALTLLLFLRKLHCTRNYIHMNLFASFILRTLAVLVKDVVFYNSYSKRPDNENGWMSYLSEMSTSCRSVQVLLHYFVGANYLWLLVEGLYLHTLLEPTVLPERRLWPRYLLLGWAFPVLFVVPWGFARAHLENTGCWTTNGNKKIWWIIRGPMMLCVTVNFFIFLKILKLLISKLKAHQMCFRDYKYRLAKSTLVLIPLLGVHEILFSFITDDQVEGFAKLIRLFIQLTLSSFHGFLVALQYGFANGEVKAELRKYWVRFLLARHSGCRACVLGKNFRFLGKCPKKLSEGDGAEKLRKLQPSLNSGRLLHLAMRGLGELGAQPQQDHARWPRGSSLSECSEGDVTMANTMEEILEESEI

B1: Compound 24 (peptide)
peptide: HXEGSFTSELATILDXQAARDFIAWLIEHKITD
HELM: PEPTIDE1{H.[Aib].E.G.S.F.T.S.E.L.A.T.I.L.D.K.Q.A.A.R.D.F.I.A.W.L.I.E.H.K.I.T.D}|PEPTIDE2{[O=C(O)CCCCCCCCCCCCCCCCC(=O)[*:2]].[gGlu]}$PEPTIDE1,PEPTIDE2,16:R3-2:R2$$$V2.0
SMILES: CC[C@H](C)[C@H](NC(=O)[C@H](Cc1ccccc1)NC(=O)[C@H](CC(=O)O)NC(=O)[C@H](CCCNC(=N)N)NC(=O)[C@H](C)NC(=O)[C@H](C)NC(=O)[C@H](CCC(N)=O)NC(=O)[C@H](CCCCNC(=O)CC[C@H](NC(=O)CCCCCCCCCCCCCCCCC(=O)O)C(=O)O)NC(=O)[C@H](CC(=O)O)NC(=O)[C@H](CC(C)C)NC(=O)[C@@H](NC(=O)[C@@H](NC(=O)[C@H](C)NC(=O)[C@H](CC(C)C)NC(=O)[C@H](CCC(=O)O)NC(=O)[C@H](CO)NC(=O)[C@@H](NC(=O)[C@H](Cc1ccccc1)NC(=O)[C@H](CO)NC(=O)CNC(=O)[C@H](CCC(=O)O)NC(=O)C(C)(C)NC(=O)[C@@H](N)Cc1c[nH]cn1)[C@@H](C)O)[C@@H](C)O)[C@@H](C)CC)C(=O)N[C@@H](C)C(=O)N[C@@H](Cc1c[nH]c2ccccc12)C(=O)N[C@@H](CC(C)C)C(=O)N[C@H](C(=O)N[C@@H](CCC(=O)O)C(=O)N[C@@H](Cc1c[nH]cn1)C(=O)N[C@@H](CCCCN)C(=O)N[C@H](C(=O)N[C@H](C(=O)N[C@@H](CC(=O)O)C(=O)O)[C@@H](C)O)[C@@H](C)CC)[C@@H](C)CC
B2: Compound 25 (peptide)
peptide: B1 peptide with S5T
HELM: PEPTIDE1{H.[Aib].E.G.T.F.T.S.E.L.A.T.I.L.D.K.Q.A.A.R.D.F.I.A.W.L.I.E.H.K.I.T.D}|PEPTIDE2{[O=C(O)CCCCCCCCCCCCCCCCC(=O)[*:2]].[gGlu]}$PEPTIDE1,PEPTIDE2,16:R3-2:R2$$$V2.0
SMILES: CC[C@H](C)[C@H](NC(=O)[C@H](Cc1ccccc1)NC(=O)[C@H](CC(=O)O)NC(=O)[C@H](CCCNC(=N)N)NC(=O)[C@H](C)NC(=O)[C@H](C)NC(=O)[C@H](CCC(N)=O)NC(=O)[C@H](CCCCNC(=O)CC[C@H](NC(=O)CCCCCCCCCCCCCCCCC(=O)O)C(=O)O)NC(=O)[C@H](CC(=O)O)NC(=O)[C@H](CC(C)C)NC(=O)[C@@H](NC(=O)[C@@H](NC(=O)[C@H](C)NC(=O)[C@H](CC(C)C)NC(=O)[C@H](CCC(=O)O)NC(=O)[C@H](CO)NC(=O)[C@@H](NC(=O)[C@H](Cc1ccccc1)NC(=O)[C@@H](NC(=O)CNC(=O)[C@H](CCC(=O)O)NC(=O)C(C)(C)NC(=O)[C@@H](N)Cc1c[nH]cn1)[C@@H](C)O)[C@@H](C)O)[C@@H](C)O)[C@@H](C)CC)C(=O)N[C@@H](C)C(=O)N[C@@H](Cc1c[nH]c2ccccc12)C(=O)N[C@@H](CC(C)C)C(=O)N[C@H](C(=O)N[C@@H](CCC(=O)O)C(=O)N[C@@H](Cc1c[nH]cn1)C(=O)N[C@@H](CCCCN)C(=O)N[C@H](C(=O)N[C@H](C(=O)N[C@@H](CC(=O)O)C(=O)O)[C@@H](C)O)[C@@H](C)CC)[C@@H](C)CC
B3: Compound 26 (peptide)
peptide: B1 peptide with E28H
HELM: PEPTIDE1{H.[Aib].E.G.S.F.T.S.E.L.A.T.I.L.D.K.Q.A.A.R.D.F.I.A.W.L.I.H.H.K.I.T.D}|PEPTIDE2{[O=C(O)CCCCCCCCCCCCCCCCC(=O)[*:2]].[gGlu]}$PEPTIDE1,PEPTIDE2,16:R3-2:R2$$$V2.0
SMILES: CC[C@H](C)[C@H](NC(=O)[C@H](Cc1ccccc1)NC(=O)[C@H](CC(=O)O)NC(=O)[C@H](CCCNC(=N)N)NC(=O)[C@H](C)NC(=O)[C@H](C)NC(=O)[C@H](CCC(N)=O)NC(=O)[C@H](CCCCNC(=O)CC[C@H](NC(=O)CCCCCCCCCCCCCCCCC(=O)O)C(=O)O)NC(=O)[C@H](CC(=O)O)NC(=O)[C@H](CC(C)C)NC(=O)[C@@H](NC(=O)[C@@H](NC(=O)[C@H](C)NC(=O)[C@H](CC(C)C)NC(=O)[C@H](CCC(=O)O)NC(=O)[C@H](CO)NC(=O)[C@@H](NC(=O)[C@H](Cc1ccccc1)NC(=O)[C@H](CO)NC(=O)CNC(=O)[C@H](CCC(=O)O)NC(=O)C(C)(C)NC(=O)[C@@H](N)Cc1c[nH]cn1)[C@@H](C)O)[C@@H](C)O)[C@@H](C)CC)C(=O)N[C@@H](C)C(=O)N[C@@H](Cc1c[nH]c2ccccc12)C(=O)N[C@@H](CC(C)C)C(=O)N[C@H](C(=O)N[C@@H](Cc1c[nH]cn1)C(=O)N[C@@H](Cc1c[nH]cn1)C(=O)N[C@@H](CCCCN)C(=O)N[C@H](C(=O)N[C@H](C(=O)N[C@@H](CC(=O)O)C(=O)O)[C@@H](C)O)[C@@H](C)CC)[C@@H](C)CC
B4: Compound 27 (peptide)
peptide: B1 peptide with E28Y
HELM: PEPTIDE1{H.[Aib].E.G.S.F.T.S.E.L.A.T.I.L.D.K.Q.A.A.R.D.F.I.A.W.L.I.Y.H.K.I.T.D}|PEPTIDE2{[O=C(O)CCCCCCCCCCCCCCCCC(=O)[*:2]].[gGlu]}$PEPTIDE1,PEPTIDE2,16:R3-2:R2$$$V2.0
SMILES: CC[C@H](C)[C@H](NC(=O)[C@H](Cc1ccccc1)NC(=O)[C@H](CC(=O)O)NC(=O)[C@H](CCCNC(=N)N)NC(=O)[C@H](C)NC(=O)[C@H](C)NC(=O)[C@H](CCC(N)=O)NC(=O)[C@H](CCCCNC(=O)CC[C@H](NC(=O)CCCCCCCCCCCCCCCCC(=O)O)C(=O)O)NC(=O)[C@H](CC(=O)O)NC(=O)[C@H](CC(C)C)NC(=O)[C@@H](NC(=O)[C@@H](NC(=O)[C@H](C)NC(=O)[C@H](CC(C)C)NC(=O)[C@H](CCC(=O)O)NC(=O)[C@H](CO)NC(=O)[C@@H](NC(=O)[C@H](Cc1ccccc1)NC(=O)[C@H](CO)NC(=O)CNC(=O)[C@H](CCC(=O)O)NC(=O)C(C)(C)NC(=O)[C@@H](N)Cc1c[nH]cn1)[C@@H](C)O)[C@@H](C)O)[C@@H](C)CC)C(=O)N[C@@H](C)C(=O)N[C@@H](Cc1c[nH]c2ccccc12)C(=O)N[C@@H](CC(C)C)C(=O)N[C@H](C(=O)N[C@@H](Cc1ccc(O)cc1)C(=O)N[C@@H](Cc1c[nH]cn1)C(=O)N[C@@H](CCCCN)C(=O)N[C@H](C(=O)N[C@H](C(=O)N[C@@H](CC(=O)O)C(=O)O)[C@@H](C)O)[C@@H](C)CC)[C@@H](C)CC
B5: Compound 28 (peptide)
peptide: B1 peptide with E28L
HELM: PEPTIDE1{H.[Aib].E.G.S.F.T.S.E.L.A.T.I.L.D.K.Q.A.A.R.D.F.I.A.W.L.I.L.H.K.I.T.D}|PEPTIDE2{[O=C(O)CCCCCCCCCCCCCCCCC(=O)[*:2]].[gGlu]}$PEPTIDE1,PEPTIDE2,16:R3-2:R2$$$V2.0
SMILES: CC[C@H](C)[C@H](NC(=O)[C@H](Cc1ccccc1)NC(=O)[C@H](CC(=O)O)NC(=O)[C@H](CCCNC(=N)N)NC(=O)[C@H](C)NC(=O)[C@H](C)NC(=O)[C@H](CCC(N)=O)NC(=O)[C@H](CCCCNC(=O)CC[C@H](NC(=O)CCCCCCCCCCCCCCCCC(=O)O)C(=O)O)NC(=O)[C@H](CC(=O)O)NC(=O)[C@H](CC(C)C)NC(=O)[C@@H](NC(=O)[C@@H](NC(=O)[C@H](C)NC(=O)[C@H](CC(C)C)NC(=O)[C@H](CCC(=O)O)NC(=O)[C@H](CO)NC(=O)[C@@H](NC(=O)[C@H](Cc1ccccc1)NC(=O)[C@H](CO)NC(=O)CNC(=O)[C@H](CCC(=O)O)NC(=O)C(C)(C)NC(=O)[C@@H](N)Cc1c[nH]cn1)[C@@H](C)O)[C@@H](C)O)[C@@H](C)CC)C(=O)N[C@@H](C)C(=O)N[C@@H](Cc1c[nH]c2ccccc12)C(=O)N[C@@H](CC(C)C)C(=O)N[C@H](C(=O)N[C@@H](CC(C)C)C(=O)N[C@@H](Cc1c[nH]cn1)C(=O)N[C@@H](CCCCN)C(=O)N[C@H](C(=O)N[C@H](C(=O)N[C@@H](CC(=O)O)C(=O)O)[C@@H](C)O)[C@@H](C)CC)[C@@H](C)CC
B6: Compound 29 (peptide)
peptide: B1 peptide with E28K
HELM: PEPTIDE1{H.[Aib].E.G.S.F.T.S.E.L.A.T.I.L.D.K.Q.A.A.R.D.F.I.A.W.L.I.K.H.K.I.T.D}|PEPTIDE2{[O=C(O)CCCCCCCCCCCCCCCCC(=O)[*:2]].[gGlu]}$PEPTIDE1,PEPTIDE2,16:R3-2:R2$$$V2.0
SMILES: CC[C@H](C)[C@H](NC(=O)[C@H](Cc1ccccc1)NC(=O)[C@H](CC(=O)O)NC(=O)[C@H](CCCNC(=N)N)NC(=O)[C@H](C)NC(=O)[C@H](C)NC(=O)[C@H](CCC(N)=O)NC(=O)[C@H](CCCCNC(=O)CC[C@H](NC(=O)CCCCCCCCCCCCCCCCC(=O)O)C(=O)O)NC(=O)[C@H](CC(=O)O)NC(=O)[C@H](CC(C)C)NC(=O)[C@@H](NC(=O)[C@@H](NC(=O)[C@H](C)NC(=O)[C@H](CC(C)C)NC(=O)[C@H](CCC(=O)O)NC(=O)[C@H](CO)NC(=O)[C@@H](NC(=O)[C@H](Cc1ccccc1)NC(=O)[C@H](CO)NC(=O)CNC(=O)[C@H](CCC(=O)O)NC(=O)C(C)(C)NC(=O)[C@@H](N)Cc1c[nH]cn1)[C@@H](C)O)[C@@H](C)O)[C@@H](C)CC)C(=O)N[C@@H](C)C(=O)N[C@@H](Cc1c[nH]c2ccccc12)C(=O)N[C@@H](CC(C)C)C(=O)N[C@H](C(=O)N[C@@H](CCCCN)C(=O)N[C@@H](Cc1c[nH]cn1)C(=O)N[C@@H](CCCCN)C(=O)N[C@H](C(=O)N[C@H](C(=O)N[C@@H](CC(=O)O)C(=O)O)[C@@H](C)O)[C@@H](C)CC)[C@@H](C)CC

The binders below were run against T1, human GLP-2 receptor (hGLP2-R) (assay: cell-based or functional assay).

Binder	EC50 GLP-2 (nM); cAMP response
B1	0.17 nM
B2	0.33 nM
B3	0.59 nM
B4	1.1 nM
B5	0.51 nM
B6	0.29 nM

These binders were tested against human glucagon-like peptide 1 receptor (GLP-1 R) (human, UniProt P43220 24-463) (assay: cell-based or functional assay).

Binder	EC50 GLP-1 (nM); cAMP response
B1	0.21 nM
B2	0.094 nM
B3	0.29 nM
B4	0.45 nM
B5	0.36 nM
B6	0.31 nM
